What was measured:
[1] = target: T1, human recombinant HER3 ECD (human, UniProt P21860 20-643); assay: SPR Biacore 4000, antibody captured, antigen 150 nM, 25 C
T1 construct: 68 kDa; also called human-Her3-ECD; full length Her3 ECD
Method: (§1) In all assay the test antibodies were captured. The system was under the control of the software version V1.1. The instrument buffer was HBS-EP (10 mM HEPES (pH 7.4), 150 mM NaCl, 1 mM EDTA, 0.05% (w/v) P20). The system operated at 25° C. 30 μg/ml Rabbit polyclonal antibody (RAM IgG, (Rabbit anti Mouse IgG with Fc gamma specificity) GE Healthcare) in 10 mM sodium acetate buffer (pH 4.5) was immobilized using EDC/NHS chemistry according to the manufacturer's instructions on the spots 1, 2, 4 and 5 in the flow cells 1, 2, 3 and 4. The sensor was saturated using 1M ethanolamine. In each flow cell, referenced signals were calculated using spots 1-2 and spots 5-4, spot 3 served as a blanc control. […] The antibody capture level (CL) in response units was monitored. […] Thereafter, the antibody-antigen complex dissociation signal was recorded for 5 min. […] The recorded signal shortly before the end of the injection of the antigen was denoted as binding late (BL) in response units. The recorded signal shortly before the end of the recording of the dissociation is denoted as stability late (SL) in response units. The dissociation rate constants were determined calculated The antibody-antigen complex stability in minutes was calculated with the following formula: ln(2)/60*kd. The Molar Ratio was calculated with the formula: MW (antibody)/MW(antigen)*BL (antigen)/CL (antibody). […]

TtSlyD-FKBP-Her3 = target: T2, TtSlyD-FKBP-Her3; assay: as above
T2 construct: 15 kDa; N-terminal Met may be present or not; also called Thermus thermophilus SlyD FKBP-Her3; thermo SlyD-Her3
T2 chain: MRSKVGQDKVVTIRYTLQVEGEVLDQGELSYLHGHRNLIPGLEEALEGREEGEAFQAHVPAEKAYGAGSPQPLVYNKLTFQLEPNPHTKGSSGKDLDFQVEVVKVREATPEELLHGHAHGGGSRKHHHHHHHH
Method: as §1

T1 sequence (P21860 20-643): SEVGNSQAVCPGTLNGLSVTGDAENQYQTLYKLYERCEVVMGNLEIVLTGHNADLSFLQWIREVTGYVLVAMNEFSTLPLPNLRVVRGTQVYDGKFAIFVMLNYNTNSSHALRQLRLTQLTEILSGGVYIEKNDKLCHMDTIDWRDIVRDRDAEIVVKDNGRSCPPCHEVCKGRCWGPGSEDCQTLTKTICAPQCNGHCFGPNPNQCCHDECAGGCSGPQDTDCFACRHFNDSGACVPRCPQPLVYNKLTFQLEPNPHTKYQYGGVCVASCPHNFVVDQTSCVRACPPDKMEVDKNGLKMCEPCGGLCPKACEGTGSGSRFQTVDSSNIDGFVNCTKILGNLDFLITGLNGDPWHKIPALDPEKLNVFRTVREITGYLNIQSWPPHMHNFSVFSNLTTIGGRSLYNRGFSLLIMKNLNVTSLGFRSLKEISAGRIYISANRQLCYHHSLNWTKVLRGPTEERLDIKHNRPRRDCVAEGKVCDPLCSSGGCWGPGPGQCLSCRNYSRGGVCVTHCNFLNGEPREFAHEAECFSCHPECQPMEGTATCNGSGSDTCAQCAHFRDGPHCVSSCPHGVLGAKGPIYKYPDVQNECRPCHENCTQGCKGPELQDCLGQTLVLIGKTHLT

B1: anti-HER3/HER4 antibody M-05-74 (antibody, V domains shown)
VH: QVQLQQSGAELAKPGASVKMSCKTSGYTLTDYWIHWVKQRPGQGLEWIGYINPYTGYTESNQKFKDKATLTADKSSNTAYIQLSSLTSEDSAVYYCARPYYYGDYWGQGTTLTVSS
VL: QIVLTQSPAIMSASPGERVTITCSASSSVSYMHWFQQKPGTSPKLLIYSTSNLASGVPARFSGSGSGTSYSLTISRMEAEDAATYYCQQRSSYPFTFGSGTKLEIK
notes: murine monoclonal antibody from hybridoma (supernatant or purified); also called M-074; M-5-74
Molar Ratio MR [1]: 0.5 | Molar Ratio MR (TtSlyD-FKBP-Her3): 1.1

Reference: US20160002338A1 (Hoffmann-La Roche, published 2016)
